Starred links: 1 amine or outer side, 2 acyl side, 3 side chain; linkers in the order of their positions; H or OH if unused. Positions of bridges follow the written chain, without caps; N, C: chain ends. Non-standard residues stand in square brackets, D forms with d. Groups on a side chain read outwards from the residue. *: point of attachment. Dip = N[C@H](C(=O)O)C(c1ccccc1)c1ccccc1; γGlu = O=C(O)[C@H](CCC(=O)[*:2])N[*:1]; Palmitoyl = CCCCCCCCCCCCCCCC(=O)*; NMeF = CN[C@@H](Cc1ccccc1)C(=O)O; αMeF = C[C@](N)(Cc1ccccc1)C(=O)O; β3hF = N[C@H](CC(=O)O)Cc1ccccc1; Isovaleryl = CC(C)CC(=O)*
T1: human ferroportin (SLC40A1) fused in frame with the GFP protein, stably expressed in HEK293 cells (human, UniProt Q9NP59 1-571)
T1 sequence (looked up): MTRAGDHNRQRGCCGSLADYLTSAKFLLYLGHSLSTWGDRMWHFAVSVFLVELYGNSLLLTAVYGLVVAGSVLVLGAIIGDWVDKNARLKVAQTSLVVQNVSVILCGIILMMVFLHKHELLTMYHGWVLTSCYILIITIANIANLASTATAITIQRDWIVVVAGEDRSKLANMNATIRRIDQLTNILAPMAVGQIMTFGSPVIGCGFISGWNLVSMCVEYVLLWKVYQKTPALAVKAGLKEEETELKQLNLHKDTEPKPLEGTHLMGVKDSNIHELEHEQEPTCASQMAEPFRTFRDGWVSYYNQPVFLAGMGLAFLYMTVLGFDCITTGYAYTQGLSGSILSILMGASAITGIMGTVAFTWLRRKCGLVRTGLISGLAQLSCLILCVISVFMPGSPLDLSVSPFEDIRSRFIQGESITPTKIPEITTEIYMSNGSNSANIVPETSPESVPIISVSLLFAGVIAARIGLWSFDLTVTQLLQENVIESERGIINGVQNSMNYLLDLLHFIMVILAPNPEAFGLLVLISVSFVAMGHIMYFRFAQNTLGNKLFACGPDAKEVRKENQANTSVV

B1: Compd ID 204 (peptide)
peptide: Isovaleryl-DTHFPCIK([γGlu-Palmitoyl])FEPRC-NH2
modifications: disulfide 6-13
SMILES: CCCCCCCCCCCCCCCC(=O)N[C@@H](CCC(=O)NCCCC[C@@H]1NC(=O)[C@H]([C@@H](C)CC)NC(=O)[C@@H](NC(=O)[C@@H]2CCCN2C(=O)[C@H](Cc2ccccc2)NC(=O)[C@H](Cc2c[nH]cn2)NC(=O)[C@@H](NC(=O)[C@H](CC(=O)O)NC(=O)CC(C)C)[C@@H](C)O)CSSC[C@@H](C(N)=O)NC(=O)[C@H](CCCNC(=N)N)NC(=O)[C@@H]2CCCN2C(=O)[C@H](CCC(=O)O)NC(=O)[C@H](Cc2ccccc2)NC1=O)C(=O)O
B2: Compd ID 207 (peptide)
peptide: Isovaleryl-DTHFPCIK([γGlu-Palmitoyl])FC-NH2
modifications: disulfide 6-10
SMILES: CCCCCCCCCCCCCCCC(=O)N[C@@H](CCC(=O)NCCCC[C@@H]1NC(=O)[C@H]([C@@H](C)CC)NC(=O)[C@@H](NC(=O)[C@@H]2CCCN2C(=O)[C@H](Cc2ccccc2)NC(=O)[C@H](Cc2c[nH]cn2)NC(=O)[C@@H](NC(=O)[C@H](CC(=O)O)NC(=O)CC(C)C)[C@@H](C)O)CSSC[C@@H](C(N)=O)NC(=O)[C@H](Cc2ccccc2)NC1=O)C(=O)O
B3: Compd ID 216 (peptide)
peptide: Isovaleryl-DTH[Dip]PCIK([γGlu-Palmitoyl])[αMeF]C-NH2
modifications: disulfide 6-10
SMILES: CCCCCCCCCCCCCCCC(=O)N[C@@H](CCC(=O)NCCCC[C@@H]1NC(=O)[C@H]([C@@H](C)CC)NC(=O)[C@@H](NC(=O)[C@@H]2CCCN2C(=O)[C@@H](NC(=O)[C@H](Cc2c[nH]cn2)NC(=O)[C@@H](NC(=O)[C@H](CC(=O)O)NC(=O)CC(C)C)[C@@H](C)O)C(c2ccccc2)c2ccccc2)CSSC[C@@H](C(N)=O)NC(=O)[C@](C)(Cc2ccccc2)NC1=O)C(=O)O
B4: Compd ID 218 (peptide)
peptide: Isovaleryl-DTH[NMeF]PCIK([γGlu-Palmitoyl])[αMeF]C-NH2
modifications: disulfide 6-10
SMILES: CCCCCCCCCCCCCCCC(=O)N[C@@H](CCC(=O)NCCCC[C@@H]1NC(=O)[C@H]([C@@H](C)CC)NC(=O)[C@@H](NC(=O)[C@@H]2CCCN2C(=O)[C@H](Cc2ccccc2)N(C)C(=O)[C@H](Cc2c[nH]cn2)NC(=O)[C@@H](NC(=O)[C@H](CC(=O)O)NC(=O)CC(C)C)[C@@H](C)O)CSSC[C@@H](C(N)=O)NC(=O)[C@](C)(Cc2ccccc2)NC1=O)C(=O)O
B5: Compd ID 205 (peptide)
peptide: Isovaleryl-DTHFPCIK([γGlu-Palmitoyl])FEPC-NH2
modifications: disulfide 6-12
SMILES: CCCCCCCCCCCCCCCC(=O)N[C@@H](CCC(=O)NCCCC[C@@H]1NC(=O)[C@H]([C@@H](C)CC)NC(=O)[C@@H](NC(=O)[C@@H]2CCCN2C(=O)[C@H](Cc2ccccc2)NC(=O)[C@H](Cc2c[nH]cn2)NC(=O)[C@@H](NC(=O)[C@H](CC(=O)O)NC(=O)CC(C)C)[C@@H](C)O)CSSC[C@@H](C(N)=O)NC(=O)[C@@H]2CCCN2C(=O)[C@H](CCC(=O)O)NC(=O)[C@H](Cc2ccccc2)NC1=O)C(=O)O
B6: Compd ID 210 (peptide)
peptide: Isovaleryl-DTHFPCIK([γGlu-Palmitoyl])FCK-NH2
modifications: disulfide 6-10
SMILES: CCCCCCCCCCCCCCCC(=O)N[C@@H](CCC(=O)NCCCC[C@@H]1NC(=O)[C@H]([C@@H](C)CC)NC(=O)[C@@H](NC(=O)[C@@H]2CCCN2C(=O)[C@H](Cc2ccccc2)NC(=O)[C@H](Cc2c[nH]cn2)NC(=O)[C@@H](NC(=O)[C@H](CC(=O)O)NC(=O)CC(C)C)[C@@H](C)O)CSSC[C@@H](C(=O)N[C@@H](CCCCN)C(N)=O)NC(=O)[C@H](Cc2ccccc2)NC1=O)C(=O)O
B7: Compd ID 201 (peptide)
peptide: Isovaleryl-DTHFPCIK([γGlu-Palmitoyl])FEPRSKGC-NH2
modifications: disulfide 6-16
SMILES: CCCCCCCCCCCCCCCC(=O)N[C@@H](CCC(=O)NCCCC[C@@H]1NC(=O)[C@H]([C@@H](C)CC)NC(=O)[C@@H](NC(=O)[C@@H]2CCCN2C(=O)[C@H](Cc2ccccc2)NC(=O)[C@H](Cc2c[nH]cn2)NC(=O)[C@@H](NC(=O)[C@H](CC(=O)O)NC(=O)CC(C)C)[C@@H](C)O)CSSC[C@@H](C(N)=O)NC(=O)CNC(=O)[C@H](CCCCN)NC(=O)[C@H](CO)NC(=O)[C@H](CCCNC(=N)N)NC(=O)[C@@H]2CCCN2C(=O)[C@H](CCC(=O)O)NC(=O)[C@H](Cc2ccccc2)NC1=O)C(=O)O
B8: Compd ID 215 (peptide)
peptide: Isovaleryl-DTHFPCIK([γGlu-Palmitoyl])[αMeF]C-NH2
modifications: disulfide 6-10
SMILES: CCCCCCCCCCCCCCCC(=O)N[C@@H](CCC(=O)NCCCC[C@@H]1NC(=O)[C@H]([C@@H](C)CC)NC(=O)[C@@H](NC(=O)[C@@H]2CCCN2C(=O)[C@H](Cc2ccccc2)NC(=O)[C@H](Cc2c[nH]cn2)NC(=O)[C@@H](NC(=O)[C@H](CC(=O)O)NC(=O)CC(C)C)[C@@H](C)O)CSSC[C@@H](C(N)=O)NC(=O)[C@](C)(Cc2ccccc2)NC1=O)C(=O)O
B9: Compd ID 202 (peptide)
peptide: Isovaleryl-DTHFPCIK([γGlu-Palmitoyl])FEPRSKC-NH2
modifications: disulfide 6-15
SMILES: CCCCCCCCCCCCCCCC(=O)N[C@@H](CCC(=O)NCCCC[C@@H]1NC(=O)[C@H]([C@@H](C)CC)NC(=O)[C@@H](NC(=O)[C@@H]2CCCN2C(=O)[C@H](Cc2ccccc2)NC(=O)[C@H](Cc2c[nH]cn2)NC(=O)[C@@H](NC(=O)[C@H](CC(=O)O)NC(=O)CC(C)C)[C@@H](C)O)CSSC[C@@H](C(N)=O)NC(=O)[C@H](CCCCN)NC(=O)[C@H](CO)NC(=O)[C@H](CCCNC(=N)N)NC(=O)[C@@H]2CCCN2C(=O)[C@H](CCC(=O)O)NC(=O)[C@H](Cc2ccccc2)NC1=O)C(=O)O
B10: Compd ID 212 (peptide)
peptide: Isovaleryl-DTHFPCI[dK]([γGlu-Palmitoyl])[NMeF]GC-NH2
modifications: disulfide 6-11
SMILES: CCCCCCCCCCCCCCCC(=O)N[C@@H](CCC(=O)NCCCC[C@H]1NC(=O)[C@H]([C@@H](C)CC)NC(=O)[C@@H](NC(=O)[C@@H]2CCCN2C(=O)[C@H](Cc2ccccc2)NC(=O)[C@H](Cc2c[nH]cn2)NC(=O)[C@@H](NC(=O)[C@H](CC(=O)O)NC(=O)CC(C)C)[C@@H](C)O)CSSC[C@@H](C(N)=O)NC(=O)CNC(=O)[C@H](Cc2ccccc2)N(C)C1=O)C(=O)O
B11: Compd ID 206 (peptide)
peptide: Isovaleryl-DTHFPCIK([γGlu-Palmitoyl])FEC-NH2
modifications: disulfide 6-11
SMILES: CCCCCCCCCCCCCCCC(=O)N[C@@H](CCC(=O)NCCCC[C@@H]1NC(=O)[C@H]([C@@H](C)CC)NC(=O)[C@@H](NC(=O)[C@@H]2CCCN2C(=O)[C@H](Cc2ccccc2)NC(=O)[C@H](Cc2c[nH]cn2)NC(=O)[C@@H](NC(=O)[C@H](CC(=O)O)NC(=O)CC(C)C)[C@@H](C)O)CSSC[C@@H](C(N)=O)NC(=O)[C@H](CCC(=O)O)NC(=O)[C@H](Cc2ccccc2)NC1=O)C(=O)O
B12: Compd ID 214 (peptide)
peptide: Isovaleryl-DTHFPCIK([γGlu-Palmitoyl])[β3hF]C-NH2
modifications: disulfide 6-10
SMILES: CCCCCCCCCCCCCCCC(=O)N[C@@H](CCC(=O)NCCCC[C@@H]1NC(=O)[C@H]([C@@H](C)CC)NC(=O)[C@@H](NC(=O)[C@@H]2CCCN2C(=O)[C@H](Cc2ccccc2)NC(=O)[C@H](Cc2c[nH]cn2)NC(=O)[C@@H](NC(=O)[C@H](CC(=O)O)NC(=O)CC(C)C)[C@@H](C)O)CSSC[C@@H](C(N)=O)NC(=O)C[C@H](Cc2ccccc2)NC1=O)C(=O)O
B13: Compd ID 217 (peptide)
peptide: Isovaleryl-DTH[αMeF]PCIK([γGlu-Palmitoyl])[αMeF]C-NH2
modifications: disulfide 6-10
SMILES: CCCCCCCCCCCCCCCC(=O)N[C@@H](CCC(=O)NCCCC[C@@H]1NC(=O)[C@H]([C@@H](C)CC)NC(=O)[C@@H](NC(=O)[C@@H]2CCCN2C(=O)[C@](C)(Cc2ccccc2)NC(=O)[C@H](Cc2c[nH]cn2)NC(=O)[C@@H](NC(=O)[C@H](CC(=O)O)NC(=O)CC(C)C)[C@@H](C)O)CSSC[C@@H](C(N)=O)NC(=O)[C@](C)(Cc2ccccc2)NC1=O)C(=O)O
B14: Compd ID 203 (peptide)
peptide: Isovaleryl-DTHFPCIK([γGlu-Palmitoyl])FEPRSC-NH2
modifications: disulfide 6-14
SMILES: CCCCCCCCCCCCCCCC(=O)N[C@@H](CCC(=O)NCCCC[C@@H]1NC(=O)[C@H]([C@@H](C)CC)NC(=O)[C@@H](NC(=O)[C@@H]2CCCN2C(=O)[C@H](Cc2ccccc2)NC(=O)[C@H](Cc2c[nH]cn2)NC(=O)[C@@H](NC(=O)[C@H](CC(=O)O)NC(=O)CC(C)C)[C@@H](C)O)CSSC[C@@H](C(N)=O)NC(=O)[C@H](CO)NC(=O)[C@H](CCCNC(=N)N)NC(=O)[C@@H]2CCCN2C(=O)[C@H](CCC(=O)O)NC(=O)[C@H](Cc2ccccc2)NC1=O)C(=O)O

Target: T1, human ferroportin (SLC40A1) fused in …
Test: cell-based or functional assay

| Binder | FPN IC50 [nM] |
| --- | --- |
| B1 | 14 |
| B2 | 64 |
| B3 | 16 |
| B4 | > 3000 |
| B5 | 64 |
| B6 | 60 |
| B7 | 9 |
| B8 | 96 |
| B9 | 11 |
| B10 | 403 |
| B11 | 267 |
| B12 | 36 |
| B13 | > 3000 |
| B14 | 15 |

From patent US20200361992A1 (PROTAGONIST THERAPEUTICS, published 2020)
